Assays:
Balir-2 [1] = assay: Balir-2 expression in 70Z/3 mouse cell line (RT-qPCR, normalized to L32); type: cell-based; conditions: 70Z/3 cells, 6 hrs
Procedure: (§1) RNA collected from samples was reverse transcribed using qScript reagent (Quanta Biosciences). Real Time quantitative PCR was performed with the StepOnePlus Real-Time PCR System (Applied Biosystems) using PerfeCTa SYBR Green FastMix reagent (Quanta Biosciences).
(§2) RACE was performed and two products were identified at this locus (FIG. 16E). We generated miRNA-formatted siRNAs (Rao, et al., 2010) against the mapped murine transcript and confirmed decreased expression in the murine pre-B cell line 70Z/3 (FIG. 14B). […] Similar to what we observed in human cell lines, Balir-2 knockdown led to an upregulation of Jun and Fos in all three of the cell lines with upregulation of Bim in two out of three cell lines (FIG. 14D-F). We further confirmed the upregulation of these proteins by western blot analysis (FIG. 14G). […] We also examined the effects of BALIR-2 expression in a second human B-ALL cell line, Reh (FIG. 18K-R), utilizing a novel method to target the transcript. Based on the method of Ulitsky et al, we generated a siRNA-like sequence within our miRNA formatted vector, targeting the splice junction of the BALIR-2 transcript (Ulitsky, et al., 2011).

BALIR-2 [2] = assay: Effect of prednisolone on BALIR-2 expression in human B-ALL cell lines (RT-qPCR); type: cell-based
Procedure: (§3) To measure proliferation, cells were cultured for 3-5 days before plating. Reagents were added according to the manufacturer's instructions (Promega CellTiter 96 AQueous Non-Radioactive Cell Proliferation Assay kit) and cells were incubated at 37°, 5% CO2 for 4 hours before absorbance was measured at 490 nm. To measure apoptosis, cells were plated and treated with 100 ng/mL doxorubicin or 250 μg/mL prednisolone in DMSO and incubated at 37° C. and 5% CO2. An untreated group and DMSO-treated group were included as controls. Cells were harvested after 24 hours and lysed with buffer supplied by Biovision. Protein concentrations were normalized after measurement by Bradford assay. Reagents were added according to the manufacturer's instructions (Biovision Caspase-3 Colorimetric Assay kit) and absorbance was measured at 405 nm. To observe the effects of prednisolone on lincRNA expression, untransduced cell lines were plated and treated with either 250 μg/mL prednisolone in DMSO or DMSO alone as a control. Cells were incubated at 37° C. and 5% CO2 for 24 hrs. Cells were collected and RNA was extracted using Trizol reagent (Invitrogen).
as §1

RS411 cell line [3] = assay: Apoptosis, caspase-3 activity, RS411; type: cell-based, human; conditions: for apoptosis measured by caspase-3 activity: RS411 stably transduced
Procedure: as §3, with “To measure apoptosis, cells were plated and treated with 100 ng/mL doxorubicin or 250 μg/mL prednisolone in DMSO and incubated at 37° C. and 5% CO2.” left out

[4] = tested on: glucocorticoid response genes Fos, Jun and Bim; assay: Expression of glucocorticoid response genes Fos, Jun and Bim in 70Z/3 cells (RT-qPCR, Western blot); type: cell-based, mouse
Procedure: as §1, §2

[5] = tested on: glucocorticoid receptor signaling pathway; assay: Expression of glucocorticoid response genes in RS4;11 cells (microarray, RT-qPCR); type: cell-based, human
Procedure: as §1
Several of these clusters consist of genes involved in the glucocorticoid receptor signaling pathway, confirmed by functional annotation results (2-4 fold increases in FOS, HSPA6, SGK1, IL8, JUN, SERPINE1, CDKN1A and ICAM1 in siRNA group, both with and without prednisone treatment; FIGS. 13B and 13C). We confirmed knockdown of BALIR-2 and upregulation of FOS, JUN, SGK1 and SERPINE1 (FIG. 13D-F and FIG. 18E-F) by RT-qPCR. […] We also observed upregulation of the pro-apoptotic protein BIM in both knockdown and prednisolone-treated cells, which is a downstream target of JUN and an important mediator of glucocorticoid-induced apoptosis of lymphocytic cells (Heidari, et al, 2012) (FIGS. 13G and 13K).

70Z/3 cells = assay: Apoptosis in 70Z/3 cells (caspase-3 activity); type: cell-based, mouse
RS411 cell line [6] = assay: Cell proliferation, MTS assay, RS411; type: cell-based, human; conditions: RS411 stably transduced with siRNA
Procedure: as §3

BALIR-2 [7] = assay: siRNA-mediated knockdown of BALIR-2 in human B-ALL cell lines (RT-qPCR, normalized to Actin); type: cell-based
Procedure: We designed two complementary “linker” strands containing restriction sites for BamHI (5′ intact), XhoI, XbaI, NheI, ApaI and BamHI (3′ mutated) as follows: 5′-[…]-3′ (forward) (SEQ ID NO. 11), 5′-[…]-3′ (reverse) (SEQ ID NO. 12). The oligonucleotides were ordered through Invitrogen and modified with 5′-phosphate groups. The complementary strands were annealed by heating to 100° C. and slowly cooling in a water bath. The pHAGE2-CMV-ZsGreen-W vector (previously described in (O'Connell, 2010)) was digested with BamHI (Fermentas) and the linker was ligated in using T4 DNA ligase (Fermentas). Colonies were sequenced (Laragen) to determine the correct orientation and verify the sequence of the insert and mutation of the 3′ BamHI site. miRNA-formatted siRNAs were cloned into BamHI and ApaI or XhoI in the P2CZL vector, using the strategy that we have previously described to generate knockdown vectors against protein coding genes (O'Connell, 2009; Rao, 2010).
All lentiviruses were produced by transfecting 293T adherent cells with knock-down vectors as listed in Table 1, using BioT transfection agent (Bioland Scientific). 2.5×10^5 293T cells were co-transfected in trans using an advanced generation lentiviral system in 6 well plates for 48 hours as described previously (O'Connell, 2010). At 48 hours, the viral supernatant was collected, filtered and used for spin infection of B-ALL cell lines. 5.0×10^5 cells were spin-infected at 30° C. for 90 minutes in the presence polybrene (4 μg/mL). Transduced cells were sorted for high ZsGreen expression as described above.
as §1

[8] = RS411 cell line, stably transduced

Molecule: C[C@]12C=CC(=O)C=C1CC[C@@H]1[C@@H]2[C@@H](O)C[C@@]2(C)[C@H]1CC[C@]2(O)C(=O)CO [prednisolone]
- Balir-2 expression upon prednisolone treatment (Balir-2 [1]): decreased
- BALIR-2 expression after prednisolone treatment (BALIR-2 [2]; RS4;11 cells): repressed
- decrease in expression of BALIR-2 following treatment (BALIR-2 [2]; RS411 and NALM6 cell lines treated with prednisolone): 30-50%
- apoptosis after prednisolone treatment (RS411 cell line [3]; RS4;11 cells): induction of apoptosis
- expression of Jun, Fos and Bim after prednisolone treatment [4]: upregulation
- expression of FOS and JUN after prednisolone treatment ([5]; RS4;11 cells): increased expression
- expression of pro-apoptotic protein BIM ([5]; RS4;11 cells): upregulation
- apoptosis after prednisolone treatment (70Z/3 cells): increased apoptosis

B1: siRNA1: miR-155 formatted siRNA oligo against BALIR-2; SEQ ID NO:29, targeting sequence SEQ ID NO:39 (nucleic acid)
chain: GAAGGCTGTATGCTGAGATTAGGTTGGCATGATTCTGTTTTGGCCACTGACTGACAGAATCATCAACCTAATCTCAGGACACAAGGCCTG
modifications: expressed or natural sequence
- cell proliferation (MTS assay) (RS411 cell line [6]): reduced
- knockdown of BALIR-2 (BALIR-2 [7]; NALM6 cell line): do not knock down

B2: siRNA2: miR-155 formatted siRNA oligo against BALIR-2; SEQ ID NO:30, targeting sequence SEQ ID NO:40 (nucleic acid)
chain: GAAGGCTGTATGCTGTTTACTGAAATCTCCTAGGTGGTTTTGGCCACTGACTGACCACCTAGGATTTCAGTAAACAGGACACAAGGCCTG
modifications: expressed or natural sequence
- apoptosis measured by caspase-3 activity (RS411 cell line [3]; DMSO): Increased apoptosis
- apoptosis measured by caspase-3 activity (RS411 cell line [3]; no treatment): Increased apoptosis
- increases in FOS, HSPA6, SGK1, IL8, JUN, SERPINE1, CDKN1A and ICAM1 in siRNA group ([5]; RS4;11, microarray, both with and without prednisone treatment): 2-4 fold
- expression of FOS, JUN, SGK1 and SERPINE1 by RT-qPCR after knockdown ([5]; RS4;11 cells): upregulation
- expression of pro-apoptotic protein BIM ([5]; RS4;11 cells): upregulation
- knockdown of BALIR-2 (BALIR-2 [7]; NALM6 cell line): do not knock down
- knockdown of BALIR-2 (BALIR-2 [7]; [8]): greatest degree of knockdown

B3: human-miR155-formatted siRNA1: human-miR155-formatted siRNA1 against BALIR-2; SEQ ID NO:33/43 (nucleic acid)
chain 1: GTAGGCTGTATGCTGAGATTAGGTTGGCATGATTCTGTTTTGGCCACTGACTGACAGAATCATCAACCTAATCTTGTATGATGCCTG
chain 2: AGATTAGGTTGGCATGATTCT
modifications: expressed or natural sequence
- knockdown of BALIR-2 (BALIR-2 [7]; [8]): do not knock down

B4: human-miR155-formatted siRNA2: human-miR155-formatted siRNA2 against BALIR-2; SEQ ID NO:34/44, printed as siRNA1-human155f (nucleic acid)
chain 1: GTAGGCTGTATGCTGTTTACTGAAATCTCCTAGGTGGTTTTGGCCACTGACTGACCACCTAGGATTTCAGTAAATGTATGATGCCTG
chain 2: TTTACTGAAATCTCCTAGGTG
modifications: expressed or natural sequence
- knockdown of BALIR-2 (BALIR-2 [7]; [8]): do not knock down

B5: siRNA3: miR-155 formatted siRNA oligo against BALIR-2; SEQ ID NO:31/41 (nucleic acid)
chain 1: GTAGGCTGTATGCTGTAAGGTAAGTGGCAGGCATTTGTTTTGGCCACTGACTGACAAATGCCTCACTTACCTTATGTATGATGCCTG
chain 2: TAAGGTAAGTGGCAGGCATTT
modifications: expressed or natural sequence
- knockdown of BALIR-2 (BALIR-2 [7]; [8]): do not knock down

B6: siRNA4: miR-155 formatted siRNA oligo against BALIR-2; SEQ ID NO:32/42 (nucleic acid)
chain 1: GTAGGCTGTATGCTGTTTCACGGTGTGGCAGCTTTCGTTTTGCCTCCAACTGAGAAAGCTGACACCGTGAAATGTATGATGCCTG
chain 2: TTTCACGGTGTGGCAGCTTTC
modifications: expressed or natural sequence
- knockdown of BALIR-2 (BALIR-2 [7]; [8]): do not knock down
